Source: publication PMC3782497, “Unique Structure and Dynamics of the EphA5 Ligand Binding Domain Mediate Its Binding Specificity as Revealed by X-ray Crystallography, NMR and MD Simulations” (PLoS ONE, 2013)
Bridge positions count the residues as written; N and C are the ends. Square brackets hold non-standard residues; d marks the D form. Primed or numbered codes have the meaning given here. Ends that are not written are not given here. PEG2′ = not defined here

B1: modified WDC peptide (WDCNGPYCHWLG-(PEG)2-KK), synthetic (peptide)
peptide: WDCNGPYCHWLG[PEG2′]KK
modifications: disulfide 3-8
notes: WDC peptide; two lysines joined to the peptide through (PEG)2, which is not an amino acid linker; also called synthetic WDC peptide; source: synthetic peptide (Anaspec, Inc.)
B2: WDC antagonistic peptide (WDCNGPYCHWLG), bacterially expressed (peptide)
peptide: WDCNGPYCHWLG
modifications: disulfide 3-8 (inferred)
notes: 12-residue peptide previously identified in a phage-display screen on the extracellular domain of rat EphA5; Cloned through BamHI into a modified pGEX-4T-1; also called WDC peptide; recombinant peptide; source: E. coli Rosetta-gami (DE3), GST fusion, released by in-gel thrombin cleavage, HPLC purified

Tests used:
rat EphA5 Fc = molecular target: T1, rat EphA5 Fc (rat, UniProt P54757 27-575); assay: ELISA; rat EphA5 Fc (1 µg/mL) held on Protein A-coated wells; different concentrations of synthetic WDC with 0.6 nM ephrin-A5 AP for 1 hour; bound AP detected with pNPP; IC50 by non linear regression; details: both partners purified
T1 construct: EphA5, rat, Fc fusion; source: bought: R&D Systems
T1 sequence (P54757 27-575): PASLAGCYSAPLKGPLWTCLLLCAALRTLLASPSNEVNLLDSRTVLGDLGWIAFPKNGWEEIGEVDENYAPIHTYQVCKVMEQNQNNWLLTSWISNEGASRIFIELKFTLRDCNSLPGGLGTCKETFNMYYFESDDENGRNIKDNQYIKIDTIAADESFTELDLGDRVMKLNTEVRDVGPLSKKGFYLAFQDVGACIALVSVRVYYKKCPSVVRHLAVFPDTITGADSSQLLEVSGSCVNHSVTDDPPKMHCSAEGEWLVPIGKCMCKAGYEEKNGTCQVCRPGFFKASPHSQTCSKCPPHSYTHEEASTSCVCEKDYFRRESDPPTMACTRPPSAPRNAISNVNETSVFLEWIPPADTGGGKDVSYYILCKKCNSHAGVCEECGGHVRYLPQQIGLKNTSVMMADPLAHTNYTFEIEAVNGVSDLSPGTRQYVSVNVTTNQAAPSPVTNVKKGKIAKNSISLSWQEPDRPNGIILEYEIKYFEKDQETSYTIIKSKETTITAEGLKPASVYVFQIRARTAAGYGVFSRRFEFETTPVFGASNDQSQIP

[1] = molecular target: T2, human EphA5 ligand-binding domain (LBD), residues 59-235 (human, UniProt P54756 59-235, K232E (from the reverse primer; not stated by the paper) | C233A (from the …, disulfide bridges Cys137-Cys147 and Cys102-Cys220; 15N-labelled for the NMR titration); assay: ITC; EphA5 LBD in the cell, bacterially expressed WDC in the syringe; 10 mM phosphate buffer pH 6.3, 25°C; single binding site model; details: both partners purified
T2 construct: Cloned through BamHI into a modified pET32a and released by thrombin, so extra N-terminal residues (probably GS) may remain; also called EphA5 LBD; source: E. coli Rosetta-gami (DE3), purified (Ni-NTA, thrombin cleavage, gel filtration, Mono Q)
T2 sequence (P54756 59-235 K232E/C233A): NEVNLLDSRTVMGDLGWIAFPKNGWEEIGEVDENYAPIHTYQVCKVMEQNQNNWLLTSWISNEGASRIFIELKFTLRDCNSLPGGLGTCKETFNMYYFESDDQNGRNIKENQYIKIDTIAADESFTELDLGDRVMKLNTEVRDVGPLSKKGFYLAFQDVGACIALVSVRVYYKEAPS

[2] = molecular target: human EphA5 ligand-binding domain (LBD), residues 59-235 (human, UniProt P54756 59-235, K232E (from the reverse primer; not stated by the paper) | C233A (from the …, disulfide bridges Cys137-Cys147 and Cys102-Cys220; 15N-labelled for the NMR titration); assay: ITC
Target sequence in this assay (P54756 59-235 K232E/C233A): as above

Row | Binder | IC50 (rat EphA5 Fc) [µM] | Kd [1] [µM] | Ka [2] [M⁻¹]
1 | B1 | ~50 |  | 
2 | B2 |  | 6.2 | 161000
